Laboratory results reported in patent US20240376225A1 (CHILDREN S MEDICAL CENTER, published 2024).
Changes are numbered by the printed parent chain. Like-named read-outs stand apart in the source and are kept apart here.

B1: Ab416 (antibody, human IgG1, kappa, V domains shown)
VH: QVQLVQSGAEVKKPGSSVKVSCKASGGTFSSYAISWVRQAPGQGLEWMGRIIPILGIANYAQKFQGRVTITADKSTSTAYMELSSLRSEDTAVYYCAREDDSSGYYQDWGQGTLVTVSS
VL: EIVMTQSPATLSVSPGERATLSCRAGQSINSYLAWYQQKPGQAPRLLIYDASTRATGIPARFSGSGSGTEFTLTISSLQSEDFAVYYCQQYEYWYTFGQGTKLEIKR
notes: IgG1
B2: Ab417 (antibody, human IgG1, kappa, V domains shown)
VH: B1 VH with T28E, F29L, S30Q, S31D, Y32L, S102I
VL: B1 VL
notes: IgG1
B3: Ab419 (antibody, human IgG1, kappa, V domains shown)
VH: B1 VH with T28E, F29L, S30Q, S31T, Y32L, S102I
VL: B1 VL with Y32H
notes: IgG1
B4: Ab420 (antibody, human IgG1, kappa, V domains shown)
VH: B1 VH with S102I
VL: B1 VL with Y32H
notes: IgG1
B5: Ab421 (antibody, human IgG1, kappa, V domains shown)
VH: B1 VH with S31T, S102I
VL: B1 VL with Y32H
notes: IgG1
B6: Ab422 (antibody, human IgG1, kappa, V domains shown)
VH: B1 VH with T28E, F29L, S30Q, S31T, Y32L, S102I
VL: B1 VL
notes: IgG1
B7: Ab424 (antibody, human IgG1, kappa, V domains shown)
VH: B1 VH with S31T, S102I
VL: B1 VL
notes: IgG1
B8: Ab627 (antibody, human IgG1, kappa, V domains shown)
VH: B1 VH with D100E, S102I
VL: B1 VL with S28K, N30S, T96S
notes: IgG1
B9: Ab628 (antibody, human IgG1, kappa, V domains shown)
VH: B1 VH with D100E, S102I
VL: B1 VL with N30S, S31H, T96S
notes: IgG1
B10: Ab629 (antibody, human IgG1, kappa, V domains shown)
VH: B1 VH with D100E, S102I
VL: B1 VL with N30S, S31R, T96S
notes: IgG1
B11: Ab630 (antibody, human IgG1, kappa, V domains shown)
VH: B1 VH with D100E, S102I
VL: B1 VL with E1D, N30S, T53S, T96S
notes: IgG1
B12: Ab631 (antibody, human IgG1, kappa, V domains shown)
VH: B1 VH with D100E, S102I
VL: B1 VL with S28K, N30S, T53S, T96S
notes: IgG1
B13: Ab632 (antibody, human IgG1, kappa, V domains shown)
VH: B1 VH with D100E, S102I
VL: B1 VL with N30S, S31H, T53S, T96S
notes: IgG1
B14: Ab633 (antibody, human IgG1, kappa, V domains shown)
VH: B1 VH with D100E, S102I
VL: B1 VL with N30S, S31R, T53S, T96S
notes: IgG1
B15: Ab194 (antibody, human IgG1, kappa, V domains shown)
VH: B1 VH with S31T
VL: B1 VL
notes: full-length human IgG1
B16: Ab204 (antibody, human IgG1, kappa, V domains shown)
VH: B1 VH with T28E, F29L, S30Q, S31D, Y32L, S102I
VL: B1 VL with Y32H
notes: full-length human IgG1

How the values were obtained:
[1] = target: T1, human CD21 on Raji B cells or primary B cells (human, UniProt P20023 21-1033); test: cell-based or functional assay
T1 sequence (looked up): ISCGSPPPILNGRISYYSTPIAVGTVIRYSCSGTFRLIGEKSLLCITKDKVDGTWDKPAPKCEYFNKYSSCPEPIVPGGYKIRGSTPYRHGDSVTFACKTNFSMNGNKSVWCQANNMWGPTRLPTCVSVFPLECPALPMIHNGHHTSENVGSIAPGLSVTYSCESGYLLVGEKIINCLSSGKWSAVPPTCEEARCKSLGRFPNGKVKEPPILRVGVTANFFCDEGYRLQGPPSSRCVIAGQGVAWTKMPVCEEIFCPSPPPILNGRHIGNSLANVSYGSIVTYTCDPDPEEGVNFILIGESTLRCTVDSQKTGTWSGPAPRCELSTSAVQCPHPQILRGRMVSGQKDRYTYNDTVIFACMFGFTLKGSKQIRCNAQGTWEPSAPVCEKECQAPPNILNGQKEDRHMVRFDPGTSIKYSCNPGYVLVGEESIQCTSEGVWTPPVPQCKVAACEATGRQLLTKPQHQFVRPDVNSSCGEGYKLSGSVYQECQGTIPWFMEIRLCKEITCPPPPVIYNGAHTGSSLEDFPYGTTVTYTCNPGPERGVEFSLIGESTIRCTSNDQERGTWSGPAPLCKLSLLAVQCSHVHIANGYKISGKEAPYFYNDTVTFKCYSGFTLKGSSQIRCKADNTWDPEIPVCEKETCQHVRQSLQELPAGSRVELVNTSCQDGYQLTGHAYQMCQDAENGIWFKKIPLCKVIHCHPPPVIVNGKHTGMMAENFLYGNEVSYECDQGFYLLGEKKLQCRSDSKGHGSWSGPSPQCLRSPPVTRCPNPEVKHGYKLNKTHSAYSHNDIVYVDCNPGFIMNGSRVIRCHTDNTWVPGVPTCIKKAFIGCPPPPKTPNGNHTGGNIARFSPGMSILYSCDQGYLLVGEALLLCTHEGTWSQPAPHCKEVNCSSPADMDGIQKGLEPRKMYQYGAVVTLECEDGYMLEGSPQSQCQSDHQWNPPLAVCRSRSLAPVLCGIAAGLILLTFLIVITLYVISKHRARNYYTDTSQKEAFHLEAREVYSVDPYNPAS

[2] = target: cyno CD21 protein (cynomolgus monkey); test: affinity KD; method not restated (Biacore elsewhere)
human CD21 protein [3] = target: T2, human CD21 protein (human, UniProt P20023 21-971, limits assumed); test: as above
T2 construct: the Biacore set-up is not described; also called huCD21; CR2
T2 sequence (looked up): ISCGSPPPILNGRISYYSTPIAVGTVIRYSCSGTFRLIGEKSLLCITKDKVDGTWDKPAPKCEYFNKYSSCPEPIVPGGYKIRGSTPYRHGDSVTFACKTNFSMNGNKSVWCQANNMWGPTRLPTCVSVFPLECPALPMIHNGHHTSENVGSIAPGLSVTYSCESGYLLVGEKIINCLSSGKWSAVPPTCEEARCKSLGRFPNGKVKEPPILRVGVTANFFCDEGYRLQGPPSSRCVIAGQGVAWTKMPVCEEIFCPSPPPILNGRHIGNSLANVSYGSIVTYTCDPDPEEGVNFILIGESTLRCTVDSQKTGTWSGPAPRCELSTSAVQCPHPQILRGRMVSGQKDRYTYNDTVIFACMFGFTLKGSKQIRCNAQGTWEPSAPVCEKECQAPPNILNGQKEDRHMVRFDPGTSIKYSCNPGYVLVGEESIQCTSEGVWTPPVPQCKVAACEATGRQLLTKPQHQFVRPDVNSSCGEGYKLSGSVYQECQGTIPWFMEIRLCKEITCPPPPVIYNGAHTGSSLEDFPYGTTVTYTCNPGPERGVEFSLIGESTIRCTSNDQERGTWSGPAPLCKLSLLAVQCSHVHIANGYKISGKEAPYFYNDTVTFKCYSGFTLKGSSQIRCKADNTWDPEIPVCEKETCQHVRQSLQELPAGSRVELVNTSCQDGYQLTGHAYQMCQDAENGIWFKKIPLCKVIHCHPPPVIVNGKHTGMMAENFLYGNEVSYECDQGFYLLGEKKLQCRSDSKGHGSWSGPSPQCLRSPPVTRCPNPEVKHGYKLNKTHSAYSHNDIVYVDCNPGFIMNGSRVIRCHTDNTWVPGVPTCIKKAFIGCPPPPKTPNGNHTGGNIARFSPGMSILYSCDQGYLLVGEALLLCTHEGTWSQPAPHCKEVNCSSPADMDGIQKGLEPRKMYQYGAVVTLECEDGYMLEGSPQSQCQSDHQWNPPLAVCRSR

[4] = target: T1, human CD21 on Raji B cells or primary B …; test: cell-based or functional assay; remark: listed apart in the source
human CD21 protein [5] = target: T2, human CD21 protein; test: SPR (Biacore)
insulin = insulin (UniProt P01308); test: polyreactivity ELISA on coated insulin; third number of the cell
[6] = target: cyno CD21 protein (cynomolgus monkey); test: SPR (Biacore)
[7] = target: T1, human CD21 on Raji B cells or primary B …; test: competition with human C3d on primary B cells
human CD21 protein [8] = target: T2, human CD21 protein; test: SPR (Biacore), KD against Ab89
[9] = target: T1, human CD21 on Raji B cells or primary B …; test: competition with human C3d on Raji B cells
[10] = target: cyno CD21 protein (cynomolgus monkey); test: SPR (Biacore); remark: listed apart in the source
human CD21 protein [11] = target: T2, human CD21 protein; test: SPR (Biacore); remark: listed apart in the source
[12] = target: cyno CD21 protein (cynomolgus monkey); test: SPR (Biacore), KD against Ab89

Chain of insulin (P01308 25-54 limits assumed, chain 1 of 2): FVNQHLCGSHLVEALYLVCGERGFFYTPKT
Chain of insulin (P01308 90-110 limits assumed, chain 2 of 2): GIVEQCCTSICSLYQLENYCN

Row | Binder | pAKT inhibition, IC50, nM; Primary B cells [1] | pAKT inhibition, IC50, nM; Raji B cells [1] | Kd [2] | Kd (human CD21 protein [3]) | pAKT inhibition, IC50, nM; Primary B cells [4] | pAKT inhibition, IC50, nM; Raji B cells [4] | Kd (human CD21 protein [5]) | insulin-binding score (ratio to buffer well) (insulin) | Kd [6] | IC50 [7] | fold improvement of affinity over Ab89 (human CD21 protein [8]) | IC50 [9] | Kd [10] | Kd (human CD21 protein [11]) | fold improvement of KD over Ab89 [12]
1 | B1 | 14.6 nM | 8.59 nM | 9.73 nM | 0.78 nM | 14.6 nM | 8.59 nM | 0.78 nM | 2 | 9.13 nM |  |  |  |  |  | 
2 | B2 | 3.94 nM | 8.91 nM | 0.08 nM | 0.02 nM | 3.94 nM | 8.91 nM | 0.02 nM | 2 | 0.08 nM |  |  |  |  |  | 
3 | B3 | 47.8 nM | 11.2 nM | 0.21 nM | 2.38 nM | 47.8 nM | 11.2 nM | 2.38 nM | 2 | 0.21 nM |  |  |  |  |  | 
4 | B4 | 61.1 nM | 26.2 nM | 0.22 nM | 2.26 nM | 61.1 nM | 26.2 nM | 2.26 nM | 2 | 0.22 nM |  |  |  |  |  | 
5 | B5 | 56.2 nM | 8.59 nM | 0.25 nM | 2.26 nM | 56.2 nM | 8.59 nM | 2.26 nM | 2 | 0.25 nM |  |  |  |  |  | 
6 | B6 | 9.98 nM | 15.8 nM | 0.24 nM | 0.04 nM | 9.98 nM | 15.8 nM | 0.04 nM | 2 | 0.24 nM |  |  |  |  |  | 
7 | B7 | 11.6 nM | 9.38 nM | 0.03 nM | 0.05 nM | 11.6 nM | 9.38 nM | 0.05 nM | 2 | 0.03 nM |  |  |  |  |  | 
8 | B8 |  |  | 0.15 nM | 0.02 nM |  |  |  |  |  |  |  |  |  |  | 
9 | B9 |  |  | 0.11 nM | 0.01 nM | 11.7 nM |  |  |  |  |  |  |  |  |  | 
10 | B10 |  |  | 0.1 nM | 0.02 nM |  |  |  |  |  |  |  |  |  |  | 
11 | B11 |  |  | 0.09 nM | 0.01 nM |  |  |  |  |  |  |  |  |  |  | 
12 | B12 |  |  | 0.19 nM | 0.03 nM |  |  |  |  |  |  |  |  |  |  | 
13 | B13 |  |  | 0.08 nM | 0.01 nM | 4.43 nM |  |  |  |  |  |  |  |  |  | 
14 | B14 |  |  | 0.12 nM | 0.02 nM |  |  |  |  |  |  |  |  |  |  | 
15 | B15 |  |  |  |  |  |  |  |  |  | 0.006 nM | ~81 fold | 0.009 nM | 9.16 nM | 0.81 nM | 2 fold
16 | B16 |  |  |  |  |  |  |  |  |  | 0.007 nM | ~81 fold | 0.005 nM | 0.06 nM | 0.81 nM | 357 fold
